Data: patent US7038112B2, “Fatty acid elongases” (Miami University, priority 1997, dated 2006)
Like-named read-outs stand apart in the source and are kept apart here.

Experiments:
[1] = In vitro fatty acid elongation assay with yeast microsomes, 18:0 acyl-CoA substrate; assay type: biochemical, Saccharomyces cerevisiae; conditions: for (%) 20:0 acyl CoA / (%) 22:0 acyl CoA / (%) 24:0 acyl CoA / (%) 26:0 acyl CoA / (%) Total / Rate, 20:0 acyl CoA / Rate, 22:0 acyl CoA / Rate, 24:0 acyl CoA / Rate, 26:0 acyl CoA / Rate, Total: second experiment
Protocol: (§1) Transformed yeast cells were grown in the presence of either glucose or galactose (2% w/v) as described in Example 1. Cells were harvested by centrifugation at 5000×g for 10 min and washed with 10 ml ice cold isolation buffer (IB), which contains 80 mM Hepes-KOH, pH 7.2, 5 mM EGTA, 5 mM EDTA, 10 mM KC1, 320 mM sucrose and 2 mM DTT). Cells were then resuspended in enough IB to fill a 1.7 ml tube containing 700 μl of 0.5 μm glass beads and yeast microsomes were isolated from the cells essentially as described in Tillman, T. and Bell, R., J. Biol. Chem. 261:9144–9149 (1986). The microsomal membrane pellet was recovered by centrifugation at 252,000×g for 60 min. The pellet was rinsed by resuspending in 40 ml fresh IB and again recovered by centrifugation at 252000×g for 60 min. Microsomal pellets were resuspended in a minimal volume of IB, and the protein concentration adjusted to 2.5 μg μl^−1 by addition of IB containing 15% glycerol. Microsomes were frozen on dry ice and stored at −80° C. The protein concentration in microsomes was determined by the Bradford method (Bradford, 1976).
(§2) Fatty acid elongase activity was measured essentially as described in Hlousek-Radojcic, A. et al., Plant J. 8:803–809 (1995). Briefly, the standard elongation reaction mix contained 80 mM Hepes-KOH, pH 7.2, 20 mM MgCl2, 500 μM NADPH, 1 mM ATP, 100 μM malonyl-CoA, 10 μM CoA-SH and 15 μM radioactive acyl-CoA substrate. The radiolabeled substrate was either [1^−14C]18:1-CoA (50 uCi μmol^−1), [1^−14C]18:0-CoA (55 uCi μmol^−1), or [1^−14C]16:0-CoA (54 uCi μmol^−1). The reaction was initiated by the addition of yeast microsomes (5 μg protein) and the mixture incubated at 30° C. for the indicated period of time. The final reaction volume was 25 μl.
(§3) Methyl esters of the acyl-CoA elongation products were prepared as described in Example 1. Methyl esters were separated on reversed phase silica gel KC18 TLC plates (Whatman, […] thick), quantified by phosphorimaging, and analyzed on by ImageQuant software (Molecular Dynamics, Inc., Sunnyvale, Calif.). The detection limit for each product is about 0.001 nanomoles per min. per mg microsomal protein, depending on the phosphorimage exposure time.
(§4) Yeast cultures containing full-length EL1 in λYES and full-length EL2 in pYEUra3 were grown in the presence of galactose or glucose as described in Example 2. Microsomes were then prepared from each of the cultures and fatty acid elongation assays were carried out as described in Example 2.
(§5) In the first experiment, microsomes were prepared from galactose-induced cultures of EL1, EL2 and FAE1, and incubated with either [1-^14C] 18:0 acyl-CoA or [1-^14C] 18:1 acyl-CoA as substrate. The amounts of various reaction products synthesized after 30 minutes (min) were determined as described in Example 2.
In a second experiment, microsomes were prepared from galactose-induced and from glucose-repressed yeast cultures containing EL1 or EL2 coding sequences. The microsomal preparations were incubated with either 18:0 acyl-CoA or 18:1 acyl-CoA as substrate and the fatty acid reaction products determined as described above. […]

[2] = assay type: biochemical, Saccharomyces cerevisiae; conditions: for (%) 20:1 acyl CoA / (%) 22:1 acyl CoA / (%) 24:1 acyl CoA / (%) 26:1 acyl CoA / (%) Total / Rate, 20:1 acyl CoA / Rate, 22:1 acyl CoA / Rate, 24:1 acyl CoA / Rate, 26:1 acyl CoA / Rate, Total: second experiment
Protocol: as §1, §2, §3, §4, §5
In a second experiment, microsomes were prepared from galactose-induced and from glucose-repressed yeast cultures containing EL1 or EL2 coding sequences. The microsomal preparations were incubated with either 18:0 acyl-CoA or 18:1 acyl-CoA as substrate and the fatty acid reaction products determined as described above.

[3] = 18:0-CoA substrate, +Galactose (induced)
[4] = 18:0-CoA substrate, +Glucose (uninduced)
[5] = 18:0-CoA substrate, galactose-induced, 30 min, first experiment
[6] = +Gal, standard reaction mix, average of two experiments
[7] = +Glu, standard reaction mix, one experiment
[8] = galactose-induced, −A&C (ATP and Coenzyme A omitted), average of two experiments
[9] = galactose-induced, −ATP, average of two experiments
[10] = galactose-induced, −CoA, average of two experiments
[11] = 18:1-CoA substrate, +Galactose (induced)
[12] = 18:1-CoA substrate, +Glucose (uninduced)
[13] = 18:1-CoA substrate, galactose-induced, 30 min, first experiment

B1: EL1: Arabidopsis β-keto acyl synthase gene product (SEQ ID NO:2) expressed in yeast microsomes (protein, listed as Arabidopsis thaliana)
chain: MDRERLTAEMAFRDSSSAVIRIRRRLPDLLTSVKLKYVKLGLHNSCNVTTILFFLIILPLTGTVLVQLTGLTFDTFSELWSNQAVQLDTATRLTCLVFLSFVLTLYVANRSKPVYLVDFSCYKPEDERKISVDSFLTMTEENGSFTDDTVQFQQRISNRAGLGDETYLPRGITSTPPKLNMSEARAEAEAVMFGALDSLFEKTGIKPAEVGILIVNCSLFNPTPSLSAMIVNHYKMREDIKSYNLGGMGCSAGLISIDLANNLLKANPNSYAVVVSTENITLNWYFGNDRSMLLCNCIFRMGGAAILLSNRRQDRKKSKYSLVNVVRTHKGSDDKNYNCVYQKEDERGTIGVSLARELMSVAGDALKTNITTLGPMVLPLSEQLMFLISLVKRKMFKLKVKPYIPDFKLAFEHFCIHAGGRAVLDEVQKNLDLKDWHMEPSRMTLHRFGNTSSSSLWYEMAYTEAKGRVKAGDRLWQIAFGSGFKCNSAVWKALRPVSTEEMTGNAWAGSIDQYPVKVVQ
- (%) 20:0 acyl CoA [1, 3]: 55.8%
- (%) 22:0 acyl CoA [1, 3]: 17.4%
- (%) 24:0 acyl CoA [1, 3]: 15.3%
- (%) 26:0 acyl CoA [1, 3]: 11.5%
- (%) Total [1, 3]: 100.0%
- Rate, 20:0 acyl CoA [1, 3]: 0.074 Nanomoles/minute/mg of microsomal protein
- Rate, 22:0 acyl CoA [1, 3]: 0.023 Nanomoles/minute/mg of microsomal protein
- Rate, 24:0 acyl CoA [1, 3]: 0.020 Nanomoles/minute/mg of microsomal protein
- Rate, 26:0 acyl CoA [1, 3]: 0.015 Nanomoles/minute/mg of microsomal protein
- Rate, Total [1, 3]: 0.133 Nanomoles/minute/mg of microsomal protein
- (%) 20:0 acyl CoA [1, 4]: 100.0%
- (%) 22:0 acyl CoA [1, 4]: 0.0%
- (%) 24:0 acyl CoA [1, 4]: 0.0%
- (%) 26:0 acyl CoA [1, 4]: 0.0%
- (%) Total [1, 4]: 100.0%
- Rate, 20:0 acyl CoA [1, 4]: 0.007 Nanomoles/minute/mg of microsomal protein
- Rate, 22:0 acyl CoA [1, 4]: 0.000 Nanomoles/minute/mg of microsomal protein
- Rate, 24:0 acyl CoA [1, 4]: 0.000 Nanomoles/minute/mg of microsomal protein
- Rate, 26:0 acyl CoA [1, 4]: 0.000 Nanomoles/minute/mg of microsomal protein
- Rate, Total [1, 4]: 0.007 Nanomoles/minute/mg of microsomal protein
- effect of omission of ATP and/or CoA on overall amounts of VLCFAs synthesized ([1]; 18:0-CoA substrate, galactose-induced): does not have a significant effect
- (%) 20:0 acyl-CoA product [1, 5]: 38.8%
- (%) 22:0 acyl-CoA product [1, 5]: 21.9%
- (%) 24:0 acyl-CoA product [1, 5]: 19.9%
- (%) 26:0 acyl-CoA product [1, 5]: 19.4%
- (%) Total acyl-CoA products [1, 5]: 100.0%
- Rate, 20:0 acyl-CoA product [1, 5]: 0.084 Nanomoles/minute/mg of microsomal protein
- Rate, 22:0 acyl-CoA product [1, 5]: 0.047 Nanomoles/minute/mg of microsomal protein
- Rate, 24:0 acyl-CoA product [1, 5]: 0.043 Nanomoles/minute/mg of microsomal protein
- Rate, 26:0 acyl-CoA product [1, 5]: 0.042 Nanomoles/minute/mg of microsomal protein
- Rate, Total acyl-CoA products [1, 5]: 0.216 Nanomoles/minute/mg of microsomal protein
- 20:0 product as a percent of total products formed [1, 6]: 46.2%
- 22:0 product as a percent of total products formed [1, 6]: 18.7%
- 24:0 product as a percent of total products formed [1, 6]: 18.1%
- 26:0 product as a percent of total products formed [1, 6]: 17.1%
- Total products as a percent of total products formed [1, 6]: 100.0%
- 20:0 product as a percent of total products formed [1, 7]: 53.9%
- 22:0 product as a percent of total products formed [1, 7]: 14.4%
- 24:0 product as a percent of total products formed [1, 7]: 18.5%
- 26:0 product as a percent of total products formed [1, 7]: 13.2%
- Total products as a percent of total products formed [1, 7]: 100.0%
- increase in overall elongase activity on induction with galactose, 18:0 acyl CoA substrate ([1]; galactose-induced vs glucose): about 19 fold
- 20:0 product as a percent of total products formed [1, 8]: 41.7%
- 22:0 product as a percent of total products formed [1, 8]: 19.4%
- 24:0 product as a percent of total products formed [1, 8]: 16.7%
- 26:0 product as a percent of total products formed [1, 8]: 22.3%
- Total products as a percent of total products formed [1, 8]: 100.0%
- 20:0 product as a percent of total products formed [1, 9]: 34.4%
- 22:0 product as a percent of total products formed [1, 9]: 13.7%
- 24:0 product as a percent of total products formed [1, 9]: 20.6%
- 26:0 product as a percent of total products formed [1, 9]: 31.4%
- Total products as a percent of total products formed [1, 9]: 100.0%
- 20:0 product as a percent of total products formed [1, 10]: 47.8%
- 22:0 product as a percent of total products formed [1, 10]: 18.0%
- 24:0 product as a percent of total products formed [1, 10]: 19.1%
- 26:0 product as a percent of total products formed [1, 10]: 15.2%
- Total products as a percent of total products formed [1, 10]: 100.0%
- 18:0-CoA elongation activity, +Glu ([1]; microsomes from glucose-grown cultures, standard reaction mix): .037 nanomoles/minute/mg of microsomal protein
- increase in 18:1 CoA elongation, microsomes from induced vs uninduced cells [2]: about 1.3 fold
- (%) 20:1 acyl CoA [2, 11]: 100.0%
- (%) 22:1 acyl CoA [2, 11]: 0.0%
- (%) 24:1 acyl CoA [2, 11]: 0.0%
- (%) 26:1 acyl CoA [2, 11]: 0.0%
- (%) Total [2, 11]: 100.0%
- Rate, 20:1 acyl CoA [2, 11]: 0.081 Nanomoles/minute/mg of microsomal protein
- Rate, 22:1 acyl CoA [2, 11]: 0.000 Nanomoles/minute/mg of microsomal protein
- Rate, 24:1 acyl CoA [2, 11]: 0.000 Nanomoles/minute/mg of microsomal protein
- Rate, 26:1 acyl CoA [2, 11]: 0.000 Nanomoles/minute/mg of microsomal protein
- Rate, Total [2, 11]: 0.081 Nanomoles/minute/mg of microsomal protein
- (%) 20:1 acyl CoA [2, 12]: 100.0%
- (%) 22:1 acyl CoA [2, 12]: 0.0%
- (%) 24:1 acyl CoA [2, 12]: 0.0%
- (%) 26:1 acyl CoA [2, 12]: 0.0%
- (%) Total [2, 12]: 100.0%
- Rate, 20:1 acyl CoA [2, 12]: 0.062 Nanomoles/minute/mg of microsomal protein
- Rate, 22:1 acyl CoA [2, 12]: 0.000 Nanomoles/minute/mg of microsomal protein
- Rate, 24:1 acyl CoA [2, 12]: 0.000 Nanomoles/minute/mg of microsomal protein
- Rate, 26:1 acyl CoA [2, 12]: 0.000 Nanomoles/minute/mg of microsomal protein
- Rate, Total [2, 12]: 0.062 Nanomoles/minute/mg of microsomal protein
- (%) 20:1 acyl-CoA product [2, 13]: 80.8%
- (%) 22:1 acyl-CoA product [2, 13]: 19.2%
- (%) 24:1 acyl-CoA product [2, 13]: 0.0%
- (%) 26:1 acyl-CoA product [2, 13]: 0.0%
- (%) Total acyl-CoA products [2, 13]: 100.0%
- Rate, 20:1 acyl-CoA product [2, 13]: 0.111 Nanomoles/minute/mg of microsomal protein
- Rate, 22:1 acyl-CoA product [2, 13]: 0.026 Nanomoles/minute/mg of microsomal protein
- Rate, 24:1 acyl-CoA product [2, 13]: 0.0 Nanomoles/minute/mg of microsomal protein
- Rate, 26:1 acyl-CoA product [2, 13]: 0.0 Nanomoles/minute/mg of microsomal protein
- Rate, Total acyl-CoA products [2, 13]: 0.137 Nanomoles/minute/mg of microsomal protein
